{
  "source": "the DeepSol protein solubility set",
  "experiment": "soluble on expression in E. coli; label from the status in PepcDB or PDB records",
  "data": [
    {"sequence": "SLASPKRWTTNGLSTNQTLCYTLGEGQPSPFFYLRSARKMPQSVEQHIAAITDRIKDFVRFLDREEVAPVLAELREMFARELRATEGFASHERELHDRIRHESDYEQLRAIHDELNVLEMERFLAISSVSALHANCTEYRDILADRALALAEDEMEHDGRGRAPCPYALCSMGSDGREEQTLITDQDYLIVYGDGGGEAADEWFREFSELIVERLAQIGFKKCTGDIMPSNPTWRGSLSQWRRKLLAIVRYEYEDYAKNLMDLIVISDARHVAGDRDLAATLIATIRALEKDYFQVLWGMAKAATEMKLALGFLKRLWTEGSGEHKGEFNLKLLAWAPLVMNVRILAINQGVPATNTVKRIEHLAREGSFSPSFANGLVEAYEVLTRHRILLQIKVIKGIQKSSYYLNPYTLPAEEREAIRQALLRIEDLQRTIHTNFSIM", "values": [
      {"measurement": "soluble on expression in E. coli", "result": "not soluble"}
    ]},
    {"sequence": "MGSDKIHHHHHHMEIFEDVVRCGGFRAAALGRGVSSSAISQSISVLEEALGIRLLNRTTRSVAPTEAGEQLLERLRPALYEIRTAVDDLNQLRERPSGTVRINAPGPAADHVLCPLTFEFMKIYPDVNVEIVSDAAIIDIVEQGFDAGVRFGNQLAQDMIAMPLGPALRYAIVASPDYLRKRGRPHSPRDLLQHDCIRRRFPGGTMVTWKFARDGDEVEITPKGRLTLSSAHQELQAALAGSGIAHLFEDYVRDDVEQGRLVELLCDWKQKLPSWYLYYPSRRHTSAAMRAFLEYIRNQRQHPDRR", "values": [
      {"measurement": "soluble on expression in E. coli", "result": "not soluble"}
    ]},
    {"sequence": "MSLKIEPKIFDELKTALVSFGDKYFVGEELNRSKLADDLRNYDEALLSKLFEVDFIMQHFVKEVAGQKLFQIEQLEEAVLYNDYWDTSYTKYENRVGLASKGKFLQDSQDVVLDFPFKDCVLTASMTKENNEEGYDDAFLNEVIEKDEIDRLFDKKVFVNVKRFGDNQGAQHSTAVDNEIVSFDKEKDNLIIKGNNLLALHALKNEFAGKVRQIYIDPPYNTGKDSFNYNDKFNHSSWLVFMKNRLEIAWELLSDDGTIWISIDGYESHYLKVLADGIFGAENFLDEVVWQRAYAPINLKKTFSKSHDYILVYAKNNSGAKELNRLPRKAEMVASYKNPDNDPRGVYKADNFSVGPAVEKNIYEITTPSGRKVLPPDGYSWRFSKERFEELLADNRVYFGKDGNSAPSYKRFLSEVKDGVVAQTLWTYQEVGHNQDAKKEIKSLFDGQTAFGTPKPEKLIQRILTLGSDENDLVLDFFMGSATTQAVAMKMNRRFIGIEQMDYISTVSVPRLQKVIEGEQGGISKDVNWQGGGSFVYAELFPKNMGYLQDVIHAKDLEELKSVYERMLSGTDTDEPADISFRADLSKIDWLQGFDENKRLLVKLLDKNGLYYNYSEIDDKNVRDLISDEDYTFNKNFYEGGEGHHHHHH", "values": [
      {"measurement": "soluble on expression in E. coli", "result": "soluble"}
    ]},
    {"sequence": "MGHHHHHHSHMINQRMIHMKNTKLLLAIATSAALLTGCQNTHGIDTNMAISSGLNAYKAATLSDADAKAIANQGCAEMDSGNQVASKSSKYGKRLAKIAKALGNNINGTPVNYKVYMTSDVNAWAMANGCVRVYSGLMDMMNDNEIEGVLGHELGHVALGHSLAEMKASYAIVAARDAISATSGVASQLSRSQLGDIAEGAINAKYSRDKESEADDFSFDLLKKRGISTQGLVGSFETLASLDGGRTQSMFDSHPPSTERAQHIRDRIASGK", "values": [
      {"measurement": "soluble on expression in E. coli", "result": "not soluble"}
    ]},
    {"sequence": "MAAAAAGAGSGPWAAQEKQFPPALLSFFIYNPRFGPREGQEENKILFYHPNEVEKNEKIRNVGLCEAIVQFTRTFSPSKPAKSLHTQKNRQFFNEPEENFWMVMVVRNPIIEKQSKDGKPVIEYQEEELLDKVYSSVLRQCYSMYKLFNGTFLKAMEDGGVKLLKERLEKFFHRYLQTLHLQSCDLLDIFGGISFFPLDKMTYLKIQSFINRMEESLNIVKYTAFLYNDQLIWSGLEQDDMRILYKYLTTSLFPRHIEPELAGRDSPIRAEMPGNLQHYGRFLTGPLNLNDPDAKCRFPKIFVNTDDTYEELHLIVYKAMSAAVCFMIDASVHPTLDFCRRLDSIVGPQLTVLASDICEQFNINKRMSGSEKEPQFKFIYFNHMNLAEKSTVHMRKTPSVSLTSVHPDLMKILGDINSDFTRVDEDEEIIVKAMSDYWVVGKKSDRRELYVILNQKNANLIEVNEEVKKLCATQFNNIFFLD", "values": [
      {"measurement": "soluble on expression in E. coli", "result": "soluble"}
    ]},
    {"sequence": "MGSDKIHHHHHHDNDWVDQSRNPDVIAPDAYASFSINIPHASKTRAVSTDPGIAAENTVKSLHVFIYDAESPNTPTVAEFTVAGGTLTQKPAGSSTWMTSQPISTKKTDKYIFAGVNLNAEIVNYITSNGLGAFSYKDFTQEITKLADQTNGFVMFNSAYPTLTPAADLYEKKSEAENNHITISVNRVTAKAAVFQSQSFVVNGGGTMTDLKFGWRNLNKKFYFIQDNRDALIKDYNWANYTAEDFTRGTDAINVYASADVPTSFSYATENAFQYISGTSNVDAATFISVSGVFTPTNIISAKKNPPTVAADFEIIVNPKPVDKTFFVVRTADGVANYFIDGPTAEKFAELCAANTPQMPSINGIYLLSENTYSNGLCYYHIFVNGDAVTPQAPYNIYRNQYFKININSIQAPGNPSDNFDRGEPIKPNSWIGVDIQIIPWEVIEEDHDL", "values": [
      {"measurement": "soluble on expression in E. coli", "result": "not soluble"}
    ]},
    {"sequence": "MATSLQAAATFLQPAKIAASPSRNVHLRSNQTVGKSFGLDSSQARLTCSLHSDLKDFAGKCSDAAKIAGFALATSALVVSGAGAEGAPKRLTYDEIQSKTYMEVKGTGTANQCPTIDGGSETFSFKAGKYTGKKFCFEPTSFTVKADSVSKNAPPDFQNTKLMTRLTYTLDEIEGPFEVGSDGSVKFKEEDGIDYAAVTVQLPGGERVPFLFTVKQLEASGKPESFSGKFLVPSYRGSSFLDPKGRGGSTGYDNAVALPAGGRGDEEELSKENVKNTAASVGEITLKITKSKPETGEVIGVFESLQPSDTDLGAKVPKDVKIQGVWYGQIE", "values": [
      {"measurement": "soluble on expression in E. coli", "result": "soluble"}
    ]},
    {"sequence": "RRKQQAPRRAAAYVSEELKAAALVDEGLDPEEHTADGEPSAKYMCPEKELARACPSYQNSPAAEFSCHEMDSESHISETSDRMADFESGSIKNEEETKEVTVPLEDTTVSDSLEQMKAVYNNFLSNSYWSNLNLNLHQPSSEKNNGSSSSSSSSSSSCGSGSFDWHQSAMAKTLQQVSQSRMLPEPSLFSTVQLYRQSSKLYGSIFTGASKFRCKDCSAAYDTLVELTVHMNETGHYRDDNHETDNNNPKRWSKPRKRSLLEMEGKEDAQKVLKCMYCGHSFESLQDLSVHMIKTKHYQKVPLKEPVTPVAAKIIPATRKKASLELELPSSPDSTGGTPKATISDTNDALQKNSNPYITPNNRYGHQNGASYAWHFEARKSQILKCMECGSSHDTLQELTAHMMVTGHFIKVTNSAMKKGKPIVETPVTPTITTLLDEKVQSVPLAATTFTSPSNTPASISPKLNVEVKKEVDKEKAVTDEKPKQKDKPGEEEEKCDISSKYHYLTENDLEESPKGGLDILKSLENTVTSAINKAQNGTPSWGGYPSIHAAYQLPNMMKLSLGSSGKSTPLKPMFGNSEIVSPTKNQTLVSPPSSQTSPMPKTNFHAMEELVKKVTEKVAKVEEKMKEPDGKLSPPKRATPSPCSSEVGEPIKMEASSDGGFRSQENSPSPPRDGCKDGSPLAEPVENGKELVKPLASSLSGSTAIITDHPPEQPFVNPLSALQSVMNIHLGKAAKPSLPALDPMSMLFKMSNSLAEKAAVATPPPLQSKKADHLDRYFYHVNNDQPIDLTKGKSDKGCSLGSVLLSPTSTAPATSSSTVTTAKTSAVVSFMSNSPLRENALSDISDMLKNLTESHTSKSSTPSSISEKSDIDGATLEEAEESTPAQKRKGRQSNWNPQHLLILQAQFAASLRQTSEGKYIMSDLSPQERMHISRFTGLSMTTISHWLANVKYQLRRTGGTKFLKNLDTGHPVFFCNDCASQIRTPSTYISHLESHLGFRLRDLSKLSTEQINSQIAQTKSPSEKMVTSSPEEDLGTSYQCKLCNRTFASKHAVKLHLSKTHGKSPEDHLLYVSELEKQ", "values": [
      {"measurement": "soluble on expression in E. coli", "result": "soluble"}
    ]},
    {"sequence": "MSLIGITQRLICNDSYHEKRECLALDWGKLFNKDLFKNFTPLPLSYEIDFSYYKHLIKAVILSGGNDLSFYSPNVLSKKRDLYEKQVIEICLEEKIPLLGICRGAQMIAHYFNSHISPCENHIGKHEVFFSKEKFISNSFHNFAIEKLGEDLVELCLAKDNTIEAFKHKYENIFGIMWHIERENGLNNIQILKEWFSLIKEGHHHHHH", "values": [
      {"measurement": "soluble on expression in E. coli", "result": "not soluble"}
    ]},
    {"sequence": "MAHHHHHHMVNRSTRLQRGPLKKKTTAVAARTSSHAEQPCADGPAKTSSPQTNSIKNVEMTVGVHASPAVAVGDTPQGKLRLRRRAKKDRPLVAAKTDMKSTVRNRKRGRARGSQPGRGSTATTIVHDEQRVTRRPAGGNRQRNQHRQLAEKLVAREEHQSRKKAAEKRMETAKAELALFDQVMQIPSFEENPFAAIEGHLNGTMAFLQPQTPDVGRRKLEE", "values": [
      {"measurement": "soluble on expression in E. coli", "result": "not soluble"}
    ]}
  ]
}
